Data published in patent publication US20200377568A1, “Novel IL-4-/IL-13-derived peptide compounds for the treatment or prevention of neurodegenerative or neuroinflammatory diseases” (Universitätsmedizin der Johannes Gutenberg-Universität Mainz, priority 2018, published 2020).

Assays:
[1] = tested on: mouse embryonic fibroblasts (Mef); test: CellTiter-blue cell viability assay (ctb), fibroblasts; format: cell-based; details: Mef cells, increasing concentrations, FIG. 2A
Protocol: Toxicity was checked by subjecting mouse embryonic fibroblasts (Mef) and the hippocampal cell line HT22 to a CellTiter-blue cell viability assay (ctb).
Mouse embryonic fibroblasts (Mef) (Sigma-Aldrich) and hippocampal HT22 (ThermoScientific) cells were cultured according to the manufacturer's protocols. Ctb assays were performed according to the manufacturer's protocols (Promega).

CD4+ T cells = test: TH2 differentiation of naive T cells; format: cell-based, mouse; details: different concentrations, FIG. 4B
Protocol: A-B: Effects of incubation with IL-4 and different concentrations of Link4 and Link13 on the differentiation of A: CD11b^+ bone marrow-derived macrophages (BMDMs) into F80^+CD206^+ cells, and B: CD4^+ T cells into Gata3^+ cells. C-D: FACS results for different populations of T cells and CD11b^+MHCII^+ monocytes/macrophages/microglia of immune cells isolated from C: spleen and D: central nervous system (CNS) of EAE mice treated with PBS, IL-4 or Link4.
In order to investigate whether Link4 and Link13 are able to modulate immune cells, in vitro assays were performed on bone marrow-derived macrophages (BDMBs) and on naïve T cells.
For the isolation of T lymphocytes 5-8 week old C57BL/6 mice were sacrificed by cervical dislocation and the spleens and lymph nodes (LN) were isolated and rubbed trough a 100 μm cell strainer into a 50 ml tube with washing medium (5% FCS, 1% P/S,1% HEPES in PBS). After washing, the cells were centrifuged for 5 min at 550 g at 4° C. To remove the red blood cells the […] was re-suspended in lysis buffer followed by centrifugation (5 min, 550 g, 4° C.). The cells were resuspended in MACS buffer and magnetic lymphocyte sorting was performed on ice, using the MidiMACS and QuadroMACS Seperators. A CD4 untouched and CD8 touched cell sort was performed a washing step in ml MACS buffer (5 min, 550 g, 4° C.). Cells were incubated with CD4 T cell biotin antibody cocktail (Miltenyi Biotec) in MACS buffer for 5 min at 4° C. Subsequently, anti-biotin microbeads and CD8 microbeads in MACS buffer was added. CD8 microbeads were added to reduce the possible contamination of CD8^+ lymphocytes. After 10 min of incubation at 4° C. the cells were washed again and resuspended in MACS buffer. MACS columns were pre equilibrated and topped with pre-separation filters (30 μm). A maximum of 300×10^6 cells were added to each column followed by 3 consecutive washing steps with MACS buffer. […] The purity of the magnetic cells sorts was assessed by comparing pre- and post-sort samples by flow cytometry. […]

**Q.** For “RARSEIIGIGSKSIMQMDY (listed as Mus musculus) [Link4]”, which “toxic effects on fibroblasts (cell viability)” value [1] is on record?
**A.** no toxic effects

**Q.** And the “differentiation of CD4+ T cells into Gata3+ cells” value (CD4+ T cells)?
**A.** did not take place
